From patent US7354588B1, “Functional derivatives of ICAM-1 with altered ability to bind LFA-1 or HRV” (Dana Farber Cancer Institute, priority 1987, dated 2008)
Where a chain is given by its changes, count along the chain named. Names may count otherwise.

B1: N175/A: ICAM-1 mutant, glycosylation site N175 replaced with A (protein, UniProt P05362 28-532, looked up, variant N175A)
Intercellular adhesion …: QTSVSPSKVILPRGGSVLVTCSTSCDQPKLLGIETPLPKKELLLPGNNRKVYELSNVQEDSQPMCYSNCPDGQSTAKTFLTVYWTPERVELAPLPSWQPVGKNLTLRCQVEGGAPRANLTVVLLRGEKELKREPAVGEPAEVTTTVLVRRDHHGANFSCRTELDLRPQGLELFEATSAPYQLQTFVLPATPPQLVSPRVLEVDTQGTVVCSLDGLFPVSEAQVHLALGDQRLNPTVTYGNDSFSAKASVSVTAEDEGTQRLTCAVILGNQSQETLQTVTIYSFPAPNVILTKPEVSEGTEVTVKCEAHPRAKVTLNGVPAQPLGPRAQLLLKATPEDNGRSFSCSATLEVAGQLIHKNQTRELRVLYGPRLDERDCPGNWTWPENSQQTPMCQAWGNPLPELKCLKDGTFPLPIGESVTVTRDLEGTYLCRARSTQGEVTRKVTVNVLSPRYEIVIITVVAAAVIMGTAGLSTYLYNRQRKIKKYRLQQAQKGTPMKPNTQATPP
B2: S3VS/AGL (protein, UniProt P05362 28-532, looked up, variant S3A V4G S5L)
Intercellular adhesion …: B1 Intercellular adhesion … with S3A, V4G, S5L, A175N
B3: D71/N: ICAM-1 substitution mutant, D71 to N (protein, UniProt P05362 28-532, looked up, variant D71N)
Intercellular adhesion …: B1 Intercellular adhesion … with D71N, A175N
B4: Q73/H: ICAM-1 substitution mutant, Q73 to H (protein, UniProt P05362 28-532, looked up, variant Q73H)
Intercellular adhesion …: B1 Intercellular adhesion … with Q73H, A175N
B5: N118/Q: ICAM-1 domain 2 substitution mutant affecting an N-linked glycosylation site (protein, UniProt P05362 28-532, looked up, variant N118Q)
Intercellular adhesion …: B1 Intercellular adhesion … with N118Q, A175N
B6: N156/E: ICAM-1 domain 2 substitution mutant affecting an N-linked glycosylation site (protein, UniProt P05362 28-532, looked up, variant N156E)
Intercellular adhesion …: B1 Intercellular adhesion … with N156E, A175N
B7: R49KV/EKL: ICAM-1 substitution mutant, R49KV to EKL (protein, UniProt P05362 28-532, looked up, variant R49E V51L)
Intercellular adhesion …: B1 Intercellular adhesion … with R49E, V51L, A175N
B8: E90/K: ICAM-1 substitution mutant, E90 to K (protein, UniProt P05362 28-532, looked up, variant E90K)
Intercellular adhesion …: B1 Intercellular adhesion … with E90K, A175N
B9: Q58EDS/AKDI (protein, UniProt P05362 28-532, looked up, variant Q58A E59K S61I)
Intercellular adhesion …: B1 Intercellular adhesion … with Q58A, E59K, S61I, A175N
B10: K39KE/ERQ: ICAM-1 substitution mutant, K39KE to ERQ (protein, UniProt P05362 28-532, looked up, variant K39E K40R E41Q)
Intercellular adhesion …: B1 Intercellular adhesion … with K39E, K40R, E41Q, A175N
B11: G46NN/ASI: ICAM-1 substitution mutant, G46NN to ASI (protein, UniProt P05362 28-532, looked up, variant G46A N47S N48I)
Intercellular adhesion …: B1 Intercellular adhesion … with G46A, N47S, N48I, A175N
B12: Q27/L: ICAM-1 substitution mutant, Q27 to L (protein, UniProt P05362 28-532, looked up, variant Q27L)
Intercellular adhesion …: B1 Intercellular adhesion … with Q27L, A175N
B13: S177/G: ICAM-1 domain 2 substitution mutant affecting an N-linked glycosylation site (protein, UniProt P05362 28-532, looked up, variant S177G)
Intercellular adhesion …: B1 Intercellular adhesion … with A175N, S177G
B14: Q73/T: ICAM-1 substitution mutant, Q73 to T (protein, UniProt P05362 28-532, looked up, variant Q73T)
Intercellular adhesion …: B1 Intercellular adhesion … with Q73T, A175N
B15: Q1T/KA: ICAM-1 substitution mutant, Q1T to KA (protein, UniProt P05362 28-532, looked up, variant Q1K T2A)
Intercellular adhesion …: B1 Intercellular adhesion … with Q1K, T2A, A175N

Target: T1, LFA-1 (Homo sapiens, UniProt P05107+P20701)
T1 construct: endogenous in cells
Experiment: Adherence of COS cells expressing ICAM-1 or ICAM-1 mutants to plastic-bound purified LFA-1
Format: cell-based
Settings: COS cells expressing ICAM-1 mutant adhering to LFA-1 coated plastic; normalized for percent of cells expressing mutant and for wild type binding; mean

T1 sequence (P20701 26-1170): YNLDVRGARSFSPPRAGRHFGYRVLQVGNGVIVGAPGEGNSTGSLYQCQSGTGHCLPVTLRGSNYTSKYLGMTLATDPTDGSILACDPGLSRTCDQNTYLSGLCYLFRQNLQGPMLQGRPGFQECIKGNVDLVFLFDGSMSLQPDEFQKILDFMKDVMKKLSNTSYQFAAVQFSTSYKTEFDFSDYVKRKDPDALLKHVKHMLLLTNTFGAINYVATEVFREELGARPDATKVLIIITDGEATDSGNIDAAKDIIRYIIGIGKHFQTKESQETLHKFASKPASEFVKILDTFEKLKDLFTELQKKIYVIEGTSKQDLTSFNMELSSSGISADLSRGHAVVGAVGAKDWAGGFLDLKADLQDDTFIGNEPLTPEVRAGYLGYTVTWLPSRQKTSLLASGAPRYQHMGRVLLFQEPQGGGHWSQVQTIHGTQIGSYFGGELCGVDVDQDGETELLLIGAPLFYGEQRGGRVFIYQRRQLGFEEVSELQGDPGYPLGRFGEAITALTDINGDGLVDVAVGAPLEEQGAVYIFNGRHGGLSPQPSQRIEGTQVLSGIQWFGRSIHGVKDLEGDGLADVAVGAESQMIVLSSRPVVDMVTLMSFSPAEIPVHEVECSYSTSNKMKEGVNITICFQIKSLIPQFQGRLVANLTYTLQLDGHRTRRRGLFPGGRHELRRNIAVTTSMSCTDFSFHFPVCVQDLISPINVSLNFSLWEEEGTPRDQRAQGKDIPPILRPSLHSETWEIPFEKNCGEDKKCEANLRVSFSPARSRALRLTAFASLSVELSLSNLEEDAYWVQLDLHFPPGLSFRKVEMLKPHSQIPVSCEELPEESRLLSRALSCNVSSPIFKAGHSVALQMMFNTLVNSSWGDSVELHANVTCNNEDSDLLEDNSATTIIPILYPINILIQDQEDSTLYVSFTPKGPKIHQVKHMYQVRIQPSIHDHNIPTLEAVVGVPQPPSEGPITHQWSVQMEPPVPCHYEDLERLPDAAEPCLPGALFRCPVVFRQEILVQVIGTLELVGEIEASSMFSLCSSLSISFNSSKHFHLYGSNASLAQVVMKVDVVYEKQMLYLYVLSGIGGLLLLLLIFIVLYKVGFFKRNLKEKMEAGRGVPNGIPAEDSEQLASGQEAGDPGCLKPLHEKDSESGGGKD
T1 sequence (P05107 23-769): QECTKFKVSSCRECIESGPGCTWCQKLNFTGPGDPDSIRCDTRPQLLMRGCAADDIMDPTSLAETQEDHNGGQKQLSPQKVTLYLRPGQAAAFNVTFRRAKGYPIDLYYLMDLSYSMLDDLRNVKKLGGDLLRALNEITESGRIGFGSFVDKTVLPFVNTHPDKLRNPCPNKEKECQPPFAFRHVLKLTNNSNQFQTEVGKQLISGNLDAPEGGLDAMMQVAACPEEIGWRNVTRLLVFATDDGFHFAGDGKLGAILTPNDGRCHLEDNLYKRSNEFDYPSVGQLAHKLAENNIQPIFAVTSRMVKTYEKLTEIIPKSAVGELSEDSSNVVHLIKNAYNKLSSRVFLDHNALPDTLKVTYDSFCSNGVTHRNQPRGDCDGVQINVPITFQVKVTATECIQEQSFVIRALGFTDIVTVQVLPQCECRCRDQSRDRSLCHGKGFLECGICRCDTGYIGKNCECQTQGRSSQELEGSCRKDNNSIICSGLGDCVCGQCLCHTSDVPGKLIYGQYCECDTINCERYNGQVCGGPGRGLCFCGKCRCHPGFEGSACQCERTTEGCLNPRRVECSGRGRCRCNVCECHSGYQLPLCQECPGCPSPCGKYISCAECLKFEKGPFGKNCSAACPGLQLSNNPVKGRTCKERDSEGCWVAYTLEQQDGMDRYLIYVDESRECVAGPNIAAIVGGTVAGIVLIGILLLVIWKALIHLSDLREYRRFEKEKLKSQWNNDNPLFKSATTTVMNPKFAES

Molecule | LFA-1 Binding %
B1 | 67%
B2 | 18%
B3 | 79%
B4 | 12%
B5 | 54%
B6 | 60%
B7 | 123%
B8 | 34%
B9 | 3%
B10 | 99%
B11 | 49%
B12 | 37%
B13 | 59%
B14 | 40%
B15 | 119%

Same assay, conditions: COS cells expressing the mutant, relative to wild type

Molecule | LFA-1 binding of ICAM-1 mutant (in words) | decrease in LFA-1 binding
B1 | did not appear to substantially effect | approximately two-fold
B4 |  | 10 fold
B5 |  | approximately two-fold
B6 |  | approximately two-fold
B13 |  | approximately two-fold
B14 |  | two-fold

System: HRV14
Experiment: Binding of [^35S]-Met labeled HRV14 to COS cells expressing ICAM-1 mutants
Format: cell-based, human rhinovirus 14
Settings: 35S met-labeled HRV14 binding to COS cells expressing ICAM-1 mutant; normalized for percent of cells expressing mutant and for wild type binding; mean

Molecule | HRV Binding %
B1 | 129%
B2 | 61%
B3 | 62%
B4 | 117%
B5 | 110%
B6 | 107%
B7 | 49%
B8 | 50%
B9 | 0%
B10 | 61%
B11 | 9%
B12 | 57%
B13 | 66%
B14 | 133%
B15 | 11%

Same assay, conditions: COS cells expressing the mutant, relative to wild type

Molecule | decrease in HRV14 binding | HRV14 binding of ICAM-1 mutant (in words)
B3 | two-fold | 
B4 |  | weak or a non-detectable affect on HRV binding
B7 | two-fold | 
B10 | two-fold | 
B11 | ten-fold | 
B15 | ten-fold | 

System: CL203 mAb
Experiment: Indirect immunofluorescence flow cytofluorometry: mAb CL203 binding to COS cells expressing ICAM-1 mutants (SLFI, % WT)
Format: cell-based
Settings: COS cells expressing the mutant, relative to wild type
Procedure: (§1) For HRV binding studies, COS cells were reseeded in a 24 well plate. One day later, the confluent monolayer was washed twice with 1 ml of RPMI 1640/10 mM MgCl2/25 mM Hepes pH 7.3 (rhinovirus-14 buffer). Transfected COS cells were labeled with 51Cr for binding to LFA-1 coated plastic as previously described (Staunton, D. E., et al., Nature 339:61-64 (1989). Immunoprecipitation and indirect immunofluorescence was performed using ICAM-1 MAb RR1/1 (Rothlein, R., et al., J. Immunol. 137:1270-1274 (1986)), R6.5 (Rothlein, R., et al., J. Immunol. 141:1665-1669 (1988)), LB-1 (Clark, E. A., et al., Hum. Immunol. 16:100-113 (1986)) and CL203 (Maio, M., J. Immunol. 143:181-188 (1989), all of which references are incorporated herein by reference).
(§2) Binding of RR1, R6.5, and LB-2 mAb was normalized to binding of CL203 mAb using Specific Linear Fluorescence Intensity (SLFI): % CL203=(mAbSLFI)×100)/CL203mABSLFI
(§3) In Table 25, the notation for the mutations uses the one-letter code for the wild-type sequence followed by a slash and the one-letter code for the corresponding mutant sequence. The position of the first amino acid within the sequence is indicated. Wild type residues precede the slash followed by the residues they were substituted for in the mutant. COS cells expressing ICAM-1 mutants were tested for adherence to LFA-1 coated plastic and for binding 35S met-labeled HRV14. LFA-1 and HRV14 binding is normalized for percent of cells expressing mutant ICAM-1 and for binding of wild type expressing cells. Binding is presented as mean and standard error (SE) for multiple experiments (n). Effects of two-fold or greater were reproducible in LFA-1, HRV and mAb binding assays and thus considered significant (bold and underlined). The specific linear fluorescence intensity (SLFI) of CL203 for each mutant is normalized to that of wild type CL203 SLFI (% WT) as discussed above. The SLFI of RR1/1, R6.5 and LB-2 SLFI is normalized to the CL203 SLFI of the mutant (% CL203) as described above.

Molecule | binding of MAb CL203 (in words)
B8 | specifically reduced level of expression
B12 | specifically reduced level of expression

Same assay, conditions: SLFI of CL203 for mutant normalized to wild type CL203 SLFI; level of expression

Molecule | Cl203 % WT (SLFI)
B1 | 80 % WT
B2 | 121 % WT
B3 | 109 % WT
B4 | 139 % WT
B5 | 139 % WT
B6 | 182 % WT
B7 | 233 % WT
B8 | 29 % WT
B9 | 98 % WT
B10 | 84 % WT
B11 | 151 % WT
B12 | 33 % WT
B13 | 87 % WT
B14 | 218 % WT
B15 | 230 % WT

System: RR1/1 mAb
Experiment: Indirect immunofluorescence flow cytofluorometry: mAb RR1/1 binding to COS cells expressing ICAM-1 mutants (SLFI, % CL203)
Format: cell-based
Settings: SLFI normalized to CL203 SLFI of the mutant
Procedure: as §1, §2, §3

Molecule | SLFI (% CL203) RR/1
B1 | 162 % CL203
B2 | 5 % CL203
B3 | 44 % CL203
B4 | 21 % CL203
B5 | 93 % CL203
B6 | 84 % CL203
B7 | 103 % CL203
B8 | 100 % CL203
B9 | 10 % CL203
B10 | 47 % CL203
B11 | 140 % CL203
B12 | 75 % CL203
B13 | 136 % CL203
B14 | 71 % CL203
B15 | 94 % CL203

System: R6.5 mAb
Experiment: Indirect immunofluorescence flow cytofluorometry: mAb R6.5 binding to COS cells expressing ICAM-1 mutants (SLFI, % CL203)
Format: cell-based
Settings: SLFI normalized to CL203 SLFI of the mutant
Procedure: as §1, §2, §3

Molecule | SLFI (% CL203) R6.5
B1 | 175 % CL203
B2 | 31 % CL203
B3 | 94 % CL203
B4 | 80 % CL203
B5 | 85 % CL203
B6 | 95 % CL203
B7 | 97 % CL203
B8 | 123 % CL203
B9 | 22 % CL203
B10 | 93 % CL203
B11 | 107 % CL203
B12 | 75 % CL203
B13 | 118 % CL203
B14 | 86 % CL203
B15 | 115 % CL203

System: LB-2 mAb
Experiment: Indirect immunofluorescence flow cytofluorometry: mAb LB-2 binding to COS cells expressing ICAM-1 mutants (SLFI, % CL203)
Format: cell-based
Settings: SLFI normalized to CL203 SLFI of the mutant
Procedure: as §1, §2, §3

Molecule | SLFI (% CL203) LB-2
B1 | 150 % CL203
B2 | 9 % CL203
B3 | 83 % CL203
B4 | 80 % CL203
B5 | 93 % CL203
B6 | 95 % CL203
B7 | 52 % CL203
B8 | 108 % CL203
B9 | 7 % CL203
B10 | 87 % CL203
B11 | 113 % CL203
B12 | 125 % CL203
B13 | 90 % CL203
B14 | 114 % CL203
B15 | 113 % CL203
